According to patent US20160002331A1 (Pfizer, published 2016):

How the values were obtained:
Human Notch3 NRR-Fc = target: T1, Human Notch3 NRR-Fc (human, UniProt Q9UM47 1378-1643, limits assumed); experiment: binding to recombinant NRR-Fc fusion protein (N/B represents non-binding)
T1 construct: domain: NRR region; also called human Notch3 NRR-Fc fusion protein; not shown: human IgG1 Fc fragment
T1 sequence (looked up): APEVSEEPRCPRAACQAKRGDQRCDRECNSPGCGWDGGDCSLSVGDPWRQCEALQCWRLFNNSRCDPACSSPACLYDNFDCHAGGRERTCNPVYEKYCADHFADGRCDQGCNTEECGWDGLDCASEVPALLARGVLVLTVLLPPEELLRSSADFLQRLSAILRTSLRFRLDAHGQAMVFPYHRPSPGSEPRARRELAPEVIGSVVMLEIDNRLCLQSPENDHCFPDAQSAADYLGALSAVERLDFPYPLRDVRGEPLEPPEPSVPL

Mouse Notch3 NRR-Fc = target: T2, Mouse Notch3 NRR-Fc (mouse, UniProt Q61982 1379-1643, limits assumed); experiment: as above
T2 construct: domain: NRR region; also called mouse Notch3 NRR-Fc fusion protein; not shown: Fc part
T2 sequence (looked up): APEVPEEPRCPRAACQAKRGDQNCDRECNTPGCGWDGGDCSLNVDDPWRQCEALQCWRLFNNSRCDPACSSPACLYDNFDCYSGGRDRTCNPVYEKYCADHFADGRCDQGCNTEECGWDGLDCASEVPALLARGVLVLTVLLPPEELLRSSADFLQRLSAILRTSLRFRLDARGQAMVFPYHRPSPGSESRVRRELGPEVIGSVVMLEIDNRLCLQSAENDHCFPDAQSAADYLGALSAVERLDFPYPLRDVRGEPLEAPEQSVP

Human Notch2 NRR-Fc = target: T3, Human Notch2 NRR-Fc (human, UniProt Q04721 1425-1677, limits assumed); experiment: as above
T3 construct: domain: NRR region; Made in CHO-PACE cells; also called human Notch2 NRR-Fc fusion protein; not shown: human IgG1 Fc fragment
T3 sequence (looked up): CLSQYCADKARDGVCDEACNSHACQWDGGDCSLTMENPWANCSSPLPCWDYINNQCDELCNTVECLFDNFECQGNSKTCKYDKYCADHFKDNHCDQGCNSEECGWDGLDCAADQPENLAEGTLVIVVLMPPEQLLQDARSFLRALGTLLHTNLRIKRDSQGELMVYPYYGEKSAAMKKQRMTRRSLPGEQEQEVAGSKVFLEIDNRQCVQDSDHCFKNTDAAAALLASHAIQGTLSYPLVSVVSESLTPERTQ

[1] = target: T4, full-length human Notch1 expressed on the cell surface (human, UniProt P46531 19-2555); experiment: cell-based or functional assay
[2] = target: T5, human Notch1 NRR_Avi_His recombinant protein (human, UniProt P46531 1434-1737); experiment: competition ELISA on coated human Notch1 NRR_Avi_His; competitor 0.8 nM biotinylated rat 438
T5 construct: Secreted from CHO-PACE cells; cleaved at S1 into an N-terminal ~26 kDa half (LNR-A, B, C, HD1) and a C-terminal ~12 kDa half (HD2 and tag) that stay associated non-covalently; written here as one chain; also called recombinant human Notch1 NRR; human Notch1 NRR immunogen
T5 sequence: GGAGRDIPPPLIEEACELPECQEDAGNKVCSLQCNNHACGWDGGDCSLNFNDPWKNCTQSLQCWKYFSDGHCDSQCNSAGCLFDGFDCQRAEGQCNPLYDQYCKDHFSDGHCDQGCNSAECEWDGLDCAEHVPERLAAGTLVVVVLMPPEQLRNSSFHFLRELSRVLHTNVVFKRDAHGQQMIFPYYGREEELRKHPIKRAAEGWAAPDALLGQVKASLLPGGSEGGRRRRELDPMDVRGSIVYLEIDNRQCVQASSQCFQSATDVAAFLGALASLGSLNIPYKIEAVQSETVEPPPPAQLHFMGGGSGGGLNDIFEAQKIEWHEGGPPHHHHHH
Description: (§1) In a similar manner as described for recombinant protein or cell based ELISAs, 96 well cell culture plates were either coated with Notch1 NRR-Avi_His protein (hi-bound co-Star plates), or seeded with full length Notch1 expressing U-2 OS cells (cell culture plate, Co-star), respectively.
(§2) After incubation for 2 hours, the plates were washed, as described above, and HRP-conjugated streptavidin (Southern Biotech) diluted 1:5000 in blocking buffer was applied. Incubation with streptavidin was allowed for 30 min before the plates were washed again and developed with TMB solution for 10 minutes. Developing reaction was stopped by adding 0.18M H₂SO₄ and absorbance at 450 nm was measured. Data plotting and analyses were performed with Microsoft Excel and Graphpad-Prizm software.

[3] = target: T4, full-length human Notch1 expressed on …; experiment: competition ELISA on U-2 OS cells expressing full-length human Notch1; competitor 0.8 nM biotinylated rat 438
Description: as §1, §2

[4] = target: T6, full-length human Notch3 expressed on U-2 OS cell surface (human, UniProt Q9UM47 40-2321); experiment: binding to Notch3 U-2 OS cells (N/B represents non-binding)
T6 construct: whole, on cells; also called Notch3 U2-OS cells; NotchS U-2 OS cells

[5] = target: full-length mouse Notch1 expressed on the cell surface of U-2 OS cells (mouse, UniProt Q01705 19-2531); experiment: cell-based or functional assay
[6] = target: T4, full-length human Notch1 expressed on …; experiment: cell-based or functional assay; remark: listed apart in the source

T4 sequence (P46531 19-2555): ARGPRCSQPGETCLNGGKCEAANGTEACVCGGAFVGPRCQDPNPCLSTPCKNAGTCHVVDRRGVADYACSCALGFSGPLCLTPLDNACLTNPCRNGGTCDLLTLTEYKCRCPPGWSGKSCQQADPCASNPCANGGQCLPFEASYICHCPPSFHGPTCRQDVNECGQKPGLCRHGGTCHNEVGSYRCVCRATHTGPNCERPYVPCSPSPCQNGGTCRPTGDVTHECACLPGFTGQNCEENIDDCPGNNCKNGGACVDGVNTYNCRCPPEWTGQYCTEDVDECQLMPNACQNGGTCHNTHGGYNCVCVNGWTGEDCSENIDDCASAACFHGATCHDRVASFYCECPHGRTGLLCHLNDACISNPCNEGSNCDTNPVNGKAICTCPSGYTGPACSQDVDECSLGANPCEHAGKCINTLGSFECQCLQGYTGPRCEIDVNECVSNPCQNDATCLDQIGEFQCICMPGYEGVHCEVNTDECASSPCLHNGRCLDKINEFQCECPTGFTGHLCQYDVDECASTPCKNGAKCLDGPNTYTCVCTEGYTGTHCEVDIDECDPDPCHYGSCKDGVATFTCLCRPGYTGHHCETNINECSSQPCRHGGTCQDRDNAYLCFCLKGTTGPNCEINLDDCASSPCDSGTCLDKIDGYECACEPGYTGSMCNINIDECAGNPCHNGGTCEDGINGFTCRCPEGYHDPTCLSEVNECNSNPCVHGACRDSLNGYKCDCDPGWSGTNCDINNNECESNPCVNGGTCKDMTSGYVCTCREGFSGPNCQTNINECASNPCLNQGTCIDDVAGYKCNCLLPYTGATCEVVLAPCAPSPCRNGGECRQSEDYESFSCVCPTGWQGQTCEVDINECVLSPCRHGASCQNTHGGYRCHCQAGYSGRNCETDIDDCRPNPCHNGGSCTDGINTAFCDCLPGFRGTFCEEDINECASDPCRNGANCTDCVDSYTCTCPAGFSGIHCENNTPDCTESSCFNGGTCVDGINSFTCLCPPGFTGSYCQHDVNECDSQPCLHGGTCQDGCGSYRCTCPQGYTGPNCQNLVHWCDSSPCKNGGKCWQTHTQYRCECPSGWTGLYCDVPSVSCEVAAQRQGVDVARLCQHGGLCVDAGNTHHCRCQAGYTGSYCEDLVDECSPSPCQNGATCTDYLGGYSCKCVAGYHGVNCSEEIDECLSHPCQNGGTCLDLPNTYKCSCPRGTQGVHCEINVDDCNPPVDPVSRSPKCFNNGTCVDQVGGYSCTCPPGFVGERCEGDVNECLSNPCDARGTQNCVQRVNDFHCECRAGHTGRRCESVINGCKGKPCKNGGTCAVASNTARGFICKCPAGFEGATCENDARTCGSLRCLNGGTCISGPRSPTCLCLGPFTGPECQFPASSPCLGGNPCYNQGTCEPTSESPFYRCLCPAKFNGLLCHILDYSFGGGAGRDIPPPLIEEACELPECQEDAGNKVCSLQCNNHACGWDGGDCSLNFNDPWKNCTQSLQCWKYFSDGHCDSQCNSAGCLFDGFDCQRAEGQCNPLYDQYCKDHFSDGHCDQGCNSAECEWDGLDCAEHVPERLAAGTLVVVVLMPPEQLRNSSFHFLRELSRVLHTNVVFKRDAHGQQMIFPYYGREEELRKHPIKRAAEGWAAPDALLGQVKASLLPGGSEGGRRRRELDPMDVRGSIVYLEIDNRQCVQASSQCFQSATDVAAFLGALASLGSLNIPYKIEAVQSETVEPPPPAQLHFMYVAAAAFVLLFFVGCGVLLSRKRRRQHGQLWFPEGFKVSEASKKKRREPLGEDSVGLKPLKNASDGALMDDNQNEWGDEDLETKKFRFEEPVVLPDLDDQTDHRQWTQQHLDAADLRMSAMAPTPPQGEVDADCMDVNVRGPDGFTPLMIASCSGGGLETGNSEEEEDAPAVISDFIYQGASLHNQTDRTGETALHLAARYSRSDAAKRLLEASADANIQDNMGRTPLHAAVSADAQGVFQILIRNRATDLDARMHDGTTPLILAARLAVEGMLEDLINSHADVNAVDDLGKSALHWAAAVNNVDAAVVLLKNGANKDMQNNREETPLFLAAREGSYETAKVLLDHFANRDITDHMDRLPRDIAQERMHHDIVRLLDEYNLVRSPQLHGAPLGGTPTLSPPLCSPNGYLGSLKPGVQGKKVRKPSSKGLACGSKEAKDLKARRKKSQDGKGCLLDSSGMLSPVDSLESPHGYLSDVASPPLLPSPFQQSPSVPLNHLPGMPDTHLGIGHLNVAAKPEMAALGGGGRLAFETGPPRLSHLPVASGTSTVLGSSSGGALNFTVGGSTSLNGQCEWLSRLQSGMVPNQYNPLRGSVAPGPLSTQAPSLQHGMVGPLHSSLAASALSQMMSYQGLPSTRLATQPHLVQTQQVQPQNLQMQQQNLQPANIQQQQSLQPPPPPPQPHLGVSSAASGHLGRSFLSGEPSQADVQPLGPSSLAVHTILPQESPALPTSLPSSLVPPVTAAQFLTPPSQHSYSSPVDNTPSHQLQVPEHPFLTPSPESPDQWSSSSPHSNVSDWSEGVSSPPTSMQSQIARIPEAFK
T6 sequence (Q9UM47 40-2321): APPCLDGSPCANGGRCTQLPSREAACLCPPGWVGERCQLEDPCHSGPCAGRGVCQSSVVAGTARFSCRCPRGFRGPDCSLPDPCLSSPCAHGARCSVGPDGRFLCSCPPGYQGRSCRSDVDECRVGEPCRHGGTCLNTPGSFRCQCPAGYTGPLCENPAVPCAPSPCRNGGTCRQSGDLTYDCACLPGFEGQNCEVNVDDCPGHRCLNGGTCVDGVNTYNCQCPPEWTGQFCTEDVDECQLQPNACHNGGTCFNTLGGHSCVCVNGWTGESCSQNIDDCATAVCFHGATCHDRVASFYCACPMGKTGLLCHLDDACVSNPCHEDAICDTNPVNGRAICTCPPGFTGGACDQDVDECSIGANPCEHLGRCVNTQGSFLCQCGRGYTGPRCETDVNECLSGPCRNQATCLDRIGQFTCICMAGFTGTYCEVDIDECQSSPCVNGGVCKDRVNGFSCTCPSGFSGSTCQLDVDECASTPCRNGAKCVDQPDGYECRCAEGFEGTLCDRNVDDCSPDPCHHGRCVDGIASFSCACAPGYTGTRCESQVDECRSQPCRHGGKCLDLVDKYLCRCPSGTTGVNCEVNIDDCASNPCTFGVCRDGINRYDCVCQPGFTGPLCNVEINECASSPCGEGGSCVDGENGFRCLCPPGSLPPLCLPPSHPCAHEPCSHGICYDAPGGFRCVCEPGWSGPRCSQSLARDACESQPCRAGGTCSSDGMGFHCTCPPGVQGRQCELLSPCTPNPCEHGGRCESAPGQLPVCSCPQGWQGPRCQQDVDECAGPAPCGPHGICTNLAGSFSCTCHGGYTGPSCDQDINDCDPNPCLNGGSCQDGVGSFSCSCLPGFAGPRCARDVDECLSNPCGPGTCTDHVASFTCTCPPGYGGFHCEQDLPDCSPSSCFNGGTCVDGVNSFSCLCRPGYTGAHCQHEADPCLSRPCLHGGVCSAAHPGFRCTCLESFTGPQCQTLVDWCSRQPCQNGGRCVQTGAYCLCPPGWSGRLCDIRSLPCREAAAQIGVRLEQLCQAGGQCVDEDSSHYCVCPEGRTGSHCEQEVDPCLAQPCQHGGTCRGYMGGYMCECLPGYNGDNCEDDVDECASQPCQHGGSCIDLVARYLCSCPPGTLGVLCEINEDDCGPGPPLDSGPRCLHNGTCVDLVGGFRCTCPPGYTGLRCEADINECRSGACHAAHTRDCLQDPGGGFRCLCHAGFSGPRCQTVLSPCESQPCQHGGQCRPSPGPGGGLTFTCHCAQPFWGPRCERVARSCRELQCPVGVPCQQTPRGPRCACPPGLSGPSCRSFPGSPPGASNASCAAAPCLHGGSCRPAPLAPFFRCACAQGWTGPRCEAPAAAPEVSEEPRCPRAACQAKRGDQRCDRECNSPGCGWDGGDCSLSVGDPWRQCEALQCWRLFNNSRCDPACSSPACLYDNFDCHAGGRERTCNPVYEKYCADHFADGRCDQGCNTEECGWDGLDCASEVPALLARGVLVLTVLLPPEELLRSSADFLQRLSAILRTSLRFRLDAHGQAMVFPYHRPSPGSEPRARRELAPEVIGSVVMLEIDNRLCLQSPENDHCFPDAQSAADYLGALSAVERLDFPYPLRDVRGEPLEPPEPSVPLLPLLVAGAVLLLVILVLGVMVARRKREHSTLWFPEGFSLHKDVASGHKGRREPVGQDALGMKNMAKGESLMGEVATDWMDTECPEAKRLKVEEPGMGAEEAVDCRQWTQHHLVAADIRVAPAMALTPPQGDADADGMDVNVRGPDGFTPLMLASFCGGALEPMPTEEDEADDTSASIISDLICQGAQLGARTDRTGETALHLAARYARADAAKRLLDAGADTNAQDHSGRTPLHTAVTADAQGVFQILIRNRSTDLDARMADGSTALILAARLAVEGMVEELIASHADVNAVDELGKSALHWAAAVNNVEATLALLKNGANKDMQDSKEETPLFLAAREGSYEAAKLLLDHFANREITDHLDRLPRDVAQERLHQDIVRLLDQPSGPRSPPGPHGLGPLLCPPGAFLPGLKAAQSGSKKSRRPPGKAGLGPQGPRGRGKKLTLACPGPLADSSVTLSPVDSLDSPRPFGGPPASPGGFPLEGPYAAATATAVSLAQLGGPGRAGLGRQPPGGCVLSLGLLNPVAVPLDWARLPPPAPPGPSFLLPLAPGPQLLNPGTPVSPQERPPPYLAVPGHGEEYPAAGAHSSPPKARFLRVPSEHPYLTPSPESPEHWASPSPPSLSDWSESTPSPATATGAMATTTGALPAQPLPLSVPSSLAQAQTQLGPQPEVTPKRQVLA

B1: humanized 351 VH1.0/VL1.1 (antibody, human IgG1, kappa, V domains shown)
VH: EVQLVESGGGLVQPGGSLRLSCAASGFTFSHYGMNWVRQAPGKGLEWVASISRSGSYIRYVDTVKGRFTISRDNAKNSLYLQMNSLRAEDTAVYYCAREGQFGDYFEYWGQGTLVTVSS
VL: DIQMTQSPSSLSASVGDRVTITCRASQKISTNLHWYQQKPGKAPKILIKYASQTISGVPSRFSGSGSGTDFTLTISSLQPEDFATYYCQQTNSWPLTFGGGTKVEIKR
notes: full chains (VH1.0)-hIgG1-3M and (VL1.1)-hkappa
B1: no binding (Human Notch3 NRR-Fc); no binding (Mouse Notch3 NRR-Fc); no binding (Human Notch2 NRR-Fc).

B2: rat 438-mIgG1 (antibody, V domains shown)
VH: AVQLVESGGGLVQPGRSLKLSCTASGFTFSSFAMAWVRQAPTKGLEWVASISYGGADTYYRDSVKGRFTISRDNAKSSLYLQMDSLRSEDTSTYYCAKDLPYYGYTPFVMDAWGQGTSVTVSS
VL: DIMLTQSPPTLSVTPGETISLSCRASQRINTDLHWYQQKPNESPRVLIKFASQTISGVPSRFSGSGSGTDFTLNINRVEPEDFSVYYCQQSNSWPYTFGAGTKLELK
notes: also called r438-mIgG; Rat438-mlgG
In the case of B2, the “Firefly/Renilla Luminescence, human Notch1 reporter cells + 5 mM EDTA, 0.01 µg/mL antibody” value [1] is reported as 338 Firefly/Renilla ratio, the “Firefly/Renilla Luminescence, human Notch1 reporter cells + 5 mM EDTA, 0.1 µg/mL antibody” value [1] is reported as 246 Firefly/Renilla ratio and the “Firefly/Renilla Luminescence, human Notch1 reporter cells + 5 mM EDTA, 1 µg/mL antibody” value [1] is reported as 117 Firefly/Renilla ratio. The “Firefly/Renilla Luminescence, human Notch1 reporter cells + 5 mM EDTA, 10 µg/mL antibody” value [1] was 54.3 Firefly/Renilla ratio, the “Firefly/Renilla Luminescence, human Notch1 reporter cells + 5 mM EDTA, 30 µg/mL antibody” value [1] was 46.9 Firefly/Renilla ratio and the EC50 [2] was 1.5 nM. The EC50 [3] was 3.6 nM, the binding result [4] was “no binding” and the “IC50, mouse Notch1 reporter gene co-culture assay (DLL4-HEK293)” value [5] was 0.71 nM. For the same binder, the “IC50, human Notch1 reporter gene co-culture assay (DLL4-HEK293)” value [6] was 0.68 nM.
